Experimental data as given in patent publication US20240010721A1 (HARBOUR BIOMED SHANGHAI, published 2024).
Like-named read-outs stand apart in the source and are kept apart here.

What was measured:
[1] = molecular target: T1, hROR2ECD-his (human, UniProt Q01974 34-403); test: ELISA, plate coated with hROR2 ECD-his
T1 construct: extracellular domain; bought, Acrobiosystems R02-H52E5; also called huROR2-his

[2] = molecular target: T2, human ROR1 (hROR1) on cells (human, UniProt Q01973 30-937); test: FACS, HEK293T-hROR1 cells
T2 construct: whole, on cells; the cell line is named under assay; also called HEK293T-hROR1; 293T-hROR1
Protocol: (§1) The binding properties were characterized by FACS. The recombinant antibodies obtained above were serially diluted to 9 different concentrations and incubated for 1 h, and then determined for the binding ability with HEK293T-hROR1, CHO-K1-cynoROR1 and A549 cell lines (endogenously expressing ROR1), respectively. The secondary antibody was then incubated for 1 h. The results are shown in FIG. 4-6 and Table 7-2 below.

[3] = molecular target: T3, cynomolgus ROR1 (cynoROR1) on CHO-K1 cells (cynomolgus, UniProt A0A2K5WTX7 30-937); test: FACS, CHO-K1-cynoROR1 cells
T3 construct: whole, on cells; also called CHO-K1-cynoROR1; CHO-K1-cyROR1
Protocol: as §1

[4] = molecular target: T2, human ROR1 (hROR1) on cells; test: cell-based or functional assay
[5] = molecular target: T2, human ROR1 (hROR1) on cells; test: FACS, A549 cells
Protocol: as §1

[6] = molecular target: T2, human ROR1 (hROR1) on cells; test: FACS, HEK293T-hROR1 cells; cytometer saturated
Protocol: as §1

[7] = molecular target: T2, human ROR1 (hROR1) on cells; test: cell-based or functional assay; remark: listed apart in the source
[8] = molecular target: T4, Human ROR1-ECD-his (human, UniProt Q01973 30-406); test: ELISA, plate coated with hROR1 ECD-his
T4 construct: extracellular domain; bought, Acrobiosystems RO1-H522y; also called hROR1-ECD-his; hROR1 ECD-his

[9] = molecular target: T1, hROR2ECD-his; test: ELISA, plate coated with hROR2 ECD-his; remark: listed apart in the source
Outline: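 Plates were coated overnight at 4 °C with hROR2 ECD-his at 1 μg/mL and blocked with 5% milk. Recombinant antibodies were bound for 1 h at room temperature and detected with anti-Fc secondary and a 15-min TMB development. […]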

[10] = molecular target: T5, ROR1 (antigen of the KD determination and of the Octet dissociation measurement) (UniProt Q01973 30-403, limits assumed); test: method not stated (conventional procedures)
[11] = molecular target: T3, cynomolgus ROR1 (cynoROR1) on CHO-K1 …; test: flow cytometry (FACS) on CHO-K1-cynoROR1 cells, antibody 0.01-100 nM, median fluorescence intensity
Protocol: as §1

[12] = molecular target: T2, human ROR1 (hROR1) on cells; test: flow cytometry (FACS) on HEK293T-hROR1 cells, antibody 0.01-100 nM, median fluorescence intensity
Protocol: as §1

[13] = molecular target: T2, human ROR1 (hROR1) on cells; test: flow cytometry (FACS) on A549 cells (endogenous ROR1), antibody 0.01-100 nM, median fluorescence intensity
Protocol: as §1

[14] = molecular target: T3, cynomolgus ROR1 (cynoROR1) on CHO-K1 …; test: flow cytometry (FACS) on CHO-K1-cynoROR1 cells, antibody 0.01-100 nM, median fluorescence intensity; remark: listed apart in the source
Protocol: as §1

[15] = molecular target: T2, human ROR1 (hROR1) on cells; test: FACS, Panc-1 cells
[16] = molecular target: T5, ROR1 (antigen of the KD determination …); test: Octet, antigen form not stated
[17] = molecular target: T2, human ROR1 (hROR1) on cells; test: FACS, HEK293T-hROR1 cells; remark: listed apart in the source

T4 sequence (Q01973 30-406): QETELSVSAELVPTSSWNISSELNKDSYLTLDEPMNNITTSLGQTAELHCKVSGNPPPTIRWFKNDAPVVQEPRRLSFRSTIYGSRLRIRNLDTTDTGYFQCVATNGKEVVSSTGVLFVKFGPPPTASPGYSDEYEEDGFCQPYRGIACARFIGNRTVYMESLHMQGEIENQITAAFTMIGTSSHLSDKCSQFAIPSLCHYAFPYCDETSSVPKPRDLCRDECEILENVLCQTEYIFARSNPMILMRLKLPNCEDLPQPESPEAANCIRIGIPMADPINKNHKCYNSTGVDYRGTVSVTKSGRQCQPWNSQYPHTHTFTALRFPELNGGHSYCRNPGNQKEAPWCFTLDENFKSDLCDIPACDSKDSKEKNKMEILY
T5 sequence (Q01973 30-403 limits assumed): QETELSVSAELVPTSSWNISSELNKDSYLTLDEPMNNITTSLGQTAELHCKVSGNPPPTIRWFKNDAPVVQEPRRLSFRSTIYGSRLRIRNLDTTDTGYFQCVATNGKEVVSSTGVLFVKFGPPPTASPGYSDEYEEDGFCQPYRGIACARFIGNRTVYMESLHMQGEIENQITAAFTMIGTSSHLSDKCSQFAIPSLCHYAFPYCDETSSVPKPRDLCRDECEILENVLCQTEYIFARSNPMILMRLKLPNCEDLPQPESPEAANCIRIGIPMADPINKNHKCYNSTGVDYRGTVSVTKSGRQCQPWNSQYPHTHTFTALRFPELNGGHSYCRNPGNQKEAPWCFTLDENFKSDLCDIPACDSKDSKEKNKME
T1 sequence (Q01974 34-403): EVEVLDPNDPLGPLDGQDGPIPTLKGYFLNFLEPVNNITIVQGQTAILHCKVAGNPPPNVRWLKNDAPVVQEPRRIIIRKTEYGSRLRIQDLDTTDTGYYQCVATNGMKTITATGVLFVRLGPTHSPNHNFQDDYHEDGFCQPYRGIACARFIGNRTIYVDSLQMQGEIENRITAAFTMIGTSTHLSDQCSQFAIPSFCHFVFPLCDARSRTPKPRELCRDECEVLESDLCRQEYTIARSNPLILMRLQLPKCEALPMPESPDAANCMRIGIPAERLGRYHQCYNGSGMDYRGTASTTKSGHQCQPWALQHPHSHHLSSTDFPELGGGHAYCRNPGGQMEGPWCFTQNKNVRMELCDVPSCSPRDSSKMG
T2 sequence (Q01973 30-937): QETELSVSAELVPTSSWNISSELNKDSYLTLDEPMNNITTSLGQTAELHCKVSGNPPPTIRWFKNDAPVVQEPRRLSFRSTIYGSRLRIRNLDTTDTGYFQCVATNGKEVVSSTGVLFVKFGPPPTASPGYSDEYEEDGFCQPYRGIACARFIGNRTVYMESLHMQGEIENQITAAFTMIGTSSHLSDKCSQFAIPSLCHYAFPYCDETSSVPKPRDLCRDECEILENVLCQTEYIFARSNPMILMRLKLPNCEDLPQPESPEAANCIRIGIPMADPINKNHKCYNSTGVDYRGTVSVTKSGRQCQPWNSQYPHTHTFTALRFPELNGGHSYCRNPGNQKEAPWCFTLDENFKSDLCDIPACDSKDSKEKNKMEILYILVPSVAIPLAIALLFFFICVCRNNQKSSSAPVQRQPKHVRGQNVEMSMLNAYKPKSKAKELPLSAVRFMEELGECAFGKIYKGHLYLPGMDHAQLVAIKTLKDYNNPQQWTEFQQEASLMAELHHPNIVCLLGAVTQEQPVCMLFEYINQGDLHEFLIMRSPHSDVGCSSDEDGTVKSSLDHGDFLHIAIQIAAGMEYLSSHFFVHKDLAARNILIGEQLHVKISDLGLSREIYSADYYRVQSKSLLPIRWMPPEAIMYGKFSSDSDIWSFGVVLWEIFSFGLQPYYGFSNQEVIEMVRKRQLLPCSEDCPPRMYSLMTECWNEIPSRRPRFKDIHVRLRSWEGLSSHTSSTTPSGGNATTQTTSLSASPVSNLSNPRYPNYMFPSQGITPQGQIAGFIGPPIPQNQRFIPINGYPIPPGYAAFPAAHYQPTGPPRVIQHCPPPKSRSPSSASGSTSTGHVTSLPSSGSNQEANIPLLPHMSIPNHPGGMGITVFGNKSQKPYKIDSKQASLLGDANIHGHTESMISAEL

Binder	ELISA signal (called MFI) [1]	fold lower EC50 than reference PR000374 [2]	MAX(MFI) [3]	MAX(MFI) [5]	MAX(MFI) [6]	ELISA signal (called MFI) [8]	binding result [9]	Kd [10]	koff [10]	kon [10]	EC50 (read off the curve) [11]	EC50 (read off the curve) [12]	EC50 (read off the curve) [13]	ADCC Cytotoxicity (%), Donor 1, 1 nM [4]	ADCC Cytotoxicity (%), Donor 1, 10 nM [4]	ADCC Cytotoxicity (%), Donor 2, 1 nM [4]	ADCC Cytotoxicity (%), Donor 2, 10 nM [4]	endocytosis EC50(nM) (a-hFc-MMAF killing, CTG luminescence) [7]	also measured
PR001419 (antibody, V domains shown, fully human IgG1, kappa) VH: QVQLVESGGGVVQPGRSLRLSCAASGFTFSSYGMHWVRQAPGKGLEWVAIIWYDGISKNYADSVKGRFTISRDMSNNTVYLQMNSLRAEDTAVYYCAKEQARSFDLWGRGTLVTVSS VL: not shown	0.025	10 fold				2.44	no binding	3.01 nM	0.00117 s⁻¹	389000 M⁻¹ s⁻¹	~0.7 nM	~3 nM	~0.2 nM						
PR001362 (antibody, V domains shown, fully human IgG1, kappa) VH: QVQLVESGGGLVQPGGSLRLSCAASGFTFSTYGMHWVRQAPGKGLEWVAVIWYDGSDEDYADSVKGRFTISRDNSKNTLYLQMNSLRAEDTAVYYCARDQARSFDLWGRGTLVTVSS VL: DIVMTQSPSTLSASVGDRVTITCRASQSINSWLAWYQQKPGKAPKLLIYKASSLESGVPSRFSGSGSGTEFTLTISSLQPDDFATYYCQQYKSYSPMYTFGQGTKVEIKR	0.032	10 fold	17700 MFI	3750 MFI	262000 MFI	2.22	no binding	45.4 nM	0.0136 s⁻¹	300000 M⁻¹ s⁻¹				13.9%	26.9%	13.2%	19.2%		EC50 (read off the curve) [14]: ~2 nM
PR001417 (antibody, V domains shown, fully human IgG1, kappa) VH: QVQLVESGGGVVQPGRSLRLSCAASGFSFSSYAMHWVRQAPGRGLEWVAVIWYDGGDEDYIDSVKGRFTISRDDSKNTLYLQMNSLRAEDTAVYYCAREQARSFDLWGRGTLVTVSS VL: DVVMTQSPSTLSASVGDRVTITCRASQSINSWLAWYQQKPGKAPKLLIYKASSLESGVPSRFSGSGSGTEFTLTISSLQPDDFATYYCQQYNSYSPMYTFGQGTKVEIKR	0.027	10 fold				2.38	no binding	14.9 nM	0.00646 s⁻¹	433000 M⁻¹ s⁻¹	~2 nM	~3 nM	~0.9 nM						

Stronger by Kd [10], values ahead:

ELISA signal (called MFI) [1]	fold lower EC50 than reference PR000374 [2]	MAX(MFI) [3]	MAX(MFI) [5]	MAX(MFI) [6]	ELISA signal (called MFI) [8]	binding result [9]	Kd [10]	koff [10]	kon [10]	EC50 (read off the curve) [11]	EC50 (read off the curve) [12]	EC50 (read off the curve) [13]	Binder	ADCC Cytotoxicity (%), Donor 1, 1 nM [4]	ADCC Cytotoxicity (%), Donor 1, 10 nM [4]	ADCC Cytotoxicity (%), Donor 2, 1 nM [4]	ADCC Cytotoxicity (%), Donor 2, 10 nM [4]	endocytosis EC50(nM) (a-hFc-MMAF killing, CTG luminescence) [7]	also measured
0.031	10 fold	29000 MFI	4330 MFI	262000 MFI	2.54	no binding	2.21 nM	0.000927 s⁻¹	419000 M⁻¹ s⁻¹				PR001353 (antibody, V domains shown, fully human IgG1, kappa) VH: QVQLVESGGGVVQPGRSLRLSCVASGFTFSSYGMHWVRQAPGKGLEWVSVAWYDGISKDYADSVKGRFTISRDNSMNTLFLQMNSLRAEDTAVYYCAREQARSFDLWGRGTLVTVSS VL: not shown	30.5%	42.3%	14.1%	21.5%	0.149 nM	
0.03	10 fold				2.61	no binding	1.53 nM	0.000512 s⁻¹	336000 M⁻¹ s⁻¹	~0.9 nM	~3 nM	~0.4 nM	PR001415 (antibody, human IgG1, kappa, V domains shown, fully human IgG1, kappa) VH: EVQLVESGGGVVQPGRSLRLSCAASGFTFSNSGMHWVRQAPGKGLEWVAIMWYDGSNKDYADSVKGRFTISRDTSKNTLYLQMNSLRAEDTAVYYCAREQARSFDLWGRGTLVTVSS VL: DIVMTQSPSTLSASVGDRVTITCRASQTINNWLAWYQQKPGKAPKLLIYKASSLESGVPSRFSGSGSGTEFTLTISSLQPDDFATYYCQQYNSYSPMYTFGQGTKVEIKR						
0.042	10 fold				2.42	no binding	1.45 nM	0.000423 s⁻¹	292000 M⁻¹ s⁻¹	~1 nM	~3 nM	~0.4 nM	PR001418 (antibody, human IgG1, kappa, V domains shown, fully human IgG1, kappa) VH: QVQLVESGGGVVQPGRSLRLSCAASGFTFSSYGMHWVRQAPGKGLEWVAVIWYDGSDKDYADSVKGRFTISRDTSKNTLYLQMNSLRAEDTAVYYCAREQARSFDLWGRGTLVTVSS VL: DIVMTQSPSTLSASVGDRVTITCRASQTINNWLAWYQQKPGKAPKLLIYKASSLESGVPSRFSGSGSGTEFTLTISSLQPDDFATYYCQQYNSYSPMYTFGQGTKLEIKR						
0.027	10 fold	27000 MFI	4300 MFI	262000 MFI	2.44	no binding	1.13 nM	0.000383 s⁻¹	339000 M⁻¹ s⁻¹				PR001354 (antibody, human IgG1, kappa, V domains shown, fully human IgG1, kappa; also called anti-ROR1 1015M2-C9 hIgG1; PR001354(WT)) VH: QVQLVQSGGGVVQPGRSLRLSCAASGFTFSSYGMHWVRQAPGKGLEWVAIMWYDGSDKDYADSVKGRFTISRDTSKNTLYLQMNSLRAEDTAVYYCAREQARSFDLWGRGTLVTVSS VL: DIVMTQSPSSLSASVGDRVTITCRASQTINNWLAWYQQKPGKAPKLLIYKASSLESGVPSRFSGSGSGTEFTLTISSLQPDDFATYYCQQYNSYSPMYTFGQGTKVEIKR	33.5%	34.7%	14.4%	15.9%	0.143 nM	MFI [15]: 6700 MFI; Response [16]: 0.609; koff [16]: 0.000117 s⁻¹; MFI [17]: 42800 MFI
0.04	10 fold	24600 MFI	4550 MFI	262000 MFI	2.5	no binding	0.481 nM	0.000191 s⁻¹	397000 M⁻¹ s⁻¹				PR001357 (antibody, human IgG1, kappa, V domains shown, fully human IgG1, kappa) VH: QVQLVQSGGGVVQPGRSLRLSCAASGFTFSSYGMHWVRQAPGKGLEWVAVIWYDGSNKDYADSVKGRFTISRDTSKNTLYLQMNSLRAEDTAVYYCAREQARSFDLWGRGTLVTVSS VL: DIQLTQSPYSLSASVGDRVTITCRASQTINNWLAWYQQKPGKAPKLLIYKASSLESGVPSRFSGSGSGTEFTLTISSLQPDDFATYYCQQYKLYSPMYTFGQGTKVEIKR	32.1%	32.1%	17.4%	15.8%	0.137 nM	
